# Measured values taken from the DeepSol protein solubility set.
# Assay: soluble on expression in E. coli; label from the status in PepcDB or PDB records
row,Sequence,soluble on expression in E. coli
1,MRALRLVTSESVTEGHPDKLADRISDAILDALIAQDKKARVAAETLVTTGLVFVAGEITTEGYVDIPNLVRKTVREVGYTRAKYGFDADTCAVLTAIDEQSPDIAGGVNLSYEWRVLKSTDPLDRVGAGDQGLMFGYATDETPELMPLPITLAHRLTMRLAEVRKTGLLPYLRPDGKAQVTVVYEGDKPLYVKTVVVSAQHSPEVEQEQLREDLIREVVRQAIPPEYLKDGETEYLINPSGRFILGGPHADTGLTGRKIIVDTYGGAVPHGGGAFSGKDPTKVDRSASYYARYMAKNIVAAGLARRALVELAYAIGKARPVSLRVETFGTGVLPDEKLTEIAKKVFDPRPLAIIEELDLLRPIYTPTSAYGHFGRPGFPWEETDRVEALRREAGL,soluble
2,MRAPEESLREVLARFPQVQAAFLFGSRAEGRARADSDWDLALLLSPEEPDPTLEVLGALVEAGLERVDLVLLHRAPPLLAFLAVKGKPVFLREGFDLGSYVSRVAREWWDTEPLLRVQREALTLKRRWLDPS,soluble
3,MRASEVLQKCLPNSLSGMHALRERALLHAVEALLHGRRLTLMDIARSWPSALRVRAPLKAVDRLLSNRNLQVERSVIDHEMAHWLLRGAQPVIVIDWSDLKPDKSWCLLRAAVPVGGRTLTLLDMVVPGKQQGLEHHHHHH,soluble
4,MRATVSGKTTTILPLLSKLIVIVIKSTSIHCSTLTSSGLFDSTAPRVFKNLVNYGGDMWFYMKPYPSNGKSGSQQMENVYQGLKSAQIKFSHITQHGISVQFFTSQSNWHSITNNNRSFSSYKLWWAHTNGAGNGGATSPNFEGFVSFGGWTSSSLVGKEYARQVQECGVTVNKYVYVK,not soluble
5,MRAVVVGAGLGGLLAGAFLARNGHEIIVLEKSAMIGGRFTNLPYKGFQLSTGALHMIPHGEDGPLAHLLRILGAKVEIVNSNPKGKILWEGKIFHYRESWKFLSVKEKAKALKLLAEIRMNKLPKEEIPADEWIKEKIGENEFLLSVLESFAGWADSVSLSDLTALELAKEIRAALRWGGPGLIRGGCKAVIDELERIIMENKGKILTRKEVVEINIEEKKVYTRDNEEYSFDVAISNVGVRETVKLIGRDYFDRDYLKQVDSIEPSEGIKFNLAVPGEPRIGNTIVFTPGLMINGFNEPSALDKSLAREGYTLIMAHMALKNGNVKKAIEKGWEELLEIFPEGEPLLAQVYRDGNPVNRTRAGLHIEWPLNEVLVVGDGYRPPGGIEVDGIALGVMKALEKLNLGSFSEWYLLEHHHHHH,soluble
6,MRCLALDIGGTKIAAAIVKNGEIEQRQQIHTPRENVVEGMHQALGKLLADYEGQFDYVAVASTGIINNGILSALNPKNLGGLAEFPLKASIAKHTDKPIGLLNDAQAATYAEYQLQNSEQVSNFVFITVSTGVGGGIVLNQILQTGSRGIAGHIGHTLADPNGAICGCGRRGCVEAIASGRAIEAVSSQWEEPCDPKEVFERFRKNDEKATALVERSAKAIANLIADLVISLDIQKIAIGGSVGLAEGYLSLVEKYLQDFPSIYCCEIETAKFGQDAGLIGAAYWVKDVLLDKPEGTIYGLEHHHHHH,soluble
7,MRDEDFCCAVCLDFFVEPCIIECGHSYCRFCIESHLNINEKCPLCRAHTGNPIRNRQLESLTMSYVSSRNISTEYYERMKSYQKKLLLQNRALVIIWTELNKRPGHSTELCNLVRNVQDEELKSEIMWQVKQQVGVGLEHTGDLQEENVTIRLKNSSSQQ,not soluble
8,MRDPNKWAEVKKTLPLVGAGRSGGRFRHPSARGKLTVQYVNRVRHYYDLLVRLSEKKRSGPSGRGLEHHHHHH,not soluble
9,MREIVTIQVGEFANFVGSHFWNFQDELLGLASDPESDPIFRNHNLDMDVLYRSGETQQGVATYTPRLVSVNLKGALGTMSSRGTLYNEGSSSRSDSSATWFGDVDTQRSEPRKRNLFLQSLYEEEHVVGKEKAKEIEDKDIVGCLDEEVECWTDFSKSHYHPQSLYELNGLWMDSQAFNNYGIGKDVFSEASRGEEICDRLRFFVEECDHIQGIKFLVDDSGGFSAVAADFLENMADEYTNVPVLLYSVRTPMSQMSSKKTVSNKLHDAISFSRLSSFCKLFTPIGLPSLTGSKASKFLNLGDEKPYRSSAVYAAALHSSTIPFRMQPTSSDSSEVSNSMDVNTLVQLLTGRGRQNIVAILDSAMPAPTLAGKQLENTLLTSLQALTPEVTEDVEDNQAVESMCILGALRSEDKEALVSEVKNAVDASYEQATTKGKPLFCNLSVSRCPLPVPLPFPSIFGNLVGRKGEILSSPVSDSLYRGSLDVHSIPVATRWRSSSAILPFLETRMGNLEKLGIQWGAMGSDVVRAWGFGREELQEMRENLSKMVSELNPQFFESSDSD,soluble
10,MREVISIHIGQAGVQIGNACWELYCLEHGIQPDGQMPSDKSLGGSDDSFSTFFSETGSGRHVPRAVMVDLEPTVIDEIRTGTYRSLFHPEQLITGKEDAANNYARGHYTIGKEIIDLTLDRIRRLADNCTGLQGFLVFHSFGGGTGSGFTSLLMERLSVDYGKKAKLEFSIYPAPQVSTAVVEPYNSILTTHTTLEHSDCSFMVDNEAIYDICRRNLDIERPSYTNLNRLIGQIVSSITASLRFDGALNVDLTEFQTNLVPYPRIHFPLATFSPVISAEKAYHEQLSVAEITNMCFEPHNQMVKCDPRHGKYMAVCLLFRGDVVPKDVNAAIATIKTKRSIQFVDWCPTGFKVGINYQPPTVVPGGDLAKVPRAVCMLSNTTAIAEAWARLDHKFDLMYAKRAFVHWYVGEGMEEGEFSEAREDLAALEKDYEEVGVDSMEDNGEEGDEY,not soluble
11,MRFEYDLLIVAASPLALDIAYRCAPLGRIGLVIPPPDGQWQWQWQRWWLSQFPPRTLDAQHWQHFQAHLSHGQRRYAPAVLELVGVDVITGVGEFVWRPRCHFQVGGDRLYARGYLLLDAPAAMDFQDMDALSRIELACWHYWSGKAPNADAQGLPVVTTEDAWFNDRLHAALKALGLAIPGSGKRKAPDFSPLHLHPLQRDAQGWLRLNRYGRTSHPQIYACGGWQRGYHLPSLTYFEAFAIARQILQRRPIPLDYRSQPWWIALPIPMARVGWNGRQAQQSLREPIQLWEIQQWSPEGQSLGQVVINRQGRLLGATLIGRAAIASSRIFGRCLDENAFAAITYAGWELDCQRQRSPKARRLPKSGSGLDSPLPLEHHHHHH,soluble
12,MRFSILGLAFASVLSGCVSTTPTTSALSSTDVTTFYDYQLHSPSGNALALQNLPDELKNADVILVGEWHTHAGIHRFQTDLLRQLSSGERRIALSMEQVTRDKQSVLDAYLKGEIGEQYFMSQSNAWPNYESDYRPLVEFAKQANLPVIAANTPKYIVRCIGRQGVDYLNKLDDEERSFVAENVNTANSPYKEKFMASMHHGKPEQTEKQYAAQVTWDETMAESIVKYLAQNPNAQVVHVAGKFHTEAGLGTAASILQRNPELKVVVVNPTSEISTNSPDYQLEVLEPPVRFVQDANRMAAYKHLSTRNDDLQCKLEHHHHHH,soluble
13,MRFTKTLFTTALFGASVFSFQSTAWADTLEQQFQQGSEATTRGDYQTTFKFLLPLAEQGNALAQMMLGVMYAKGQGVKQDDVEAVKWYRKAAEQGYADAQAMLGFSYLLGQSGVQVNKSLAKEWFGKACDNGDQNGCEYYGKLNRGEL,not soluble
14,MRFVPSYLIGFITLYLKGKVMLSIFDIYKIGVGPSSSHTNGPMIAGYRFVQQLLPQLNKVARIQVDLYGSLSLTGKGHHTDRATLLGLMGNQPATIKIGDANQTLREALQTGKLRLNGQHDIAFDYHQDLLFHQDNLPLHENGMTLSAFDTQGQQIDFETYYSVGGGFVATAEQLQNGT,not soluble
15,MRGGPVNSHDVTDEQWEGLAQVVPLRGRDAWPSAVGHRSIPEAQTEARRRFVVLRVNIFADARDVAETLMRGIPVLLDLTSAETEVAKRVLDFSTGVVFGLASGMHRVDRNVFLLTPPGTEVQGLMEGVGVPGILEHHHHHH,not soluble
16,MRGGSSLDSFPGKGTLHTLEIENFKSYKGKHTIGPFTRFTAIIGPNGSGKSNLMDAISFVLGEKPSSLRVRKYADLIHGAPINKPVAKKCRVTMNYKYSDGKVKAFTRGVNNGTSEHLLDGQTVTSAAYSQEMESINIFIKARNFLVYQGAIENIAMKTPKERTQLFEELSRSHEFQAEYERLKVEMTKAEDDTQHNMNKRRGIAQEKREAKMEKDEAEKYQTMKNELAAKSTMLFLHQLFHCERTIDESKEEINAQKKTIASLEATRSKEEAKIAAVHQEHRKALREVQKMTRKLDQKETDLAEKQQNMLTLKVSVAHEHKKLEIAKKMLAAAESKAENNSTQLADLKKSKKELEKKKAAYEAEIQDMMQRGELNLSDEQVREYGQLKDQAQRESAMVQRELLMAEQVFEGDKSSLNHELRRQKEHQERVKAKEGDVRRIETQIATLAQRIKETEEETKILKADLKKIENDVVIDKSAAAEYNKELVAVVRQLSEASGDSAEGERNQRRTEALEGLKKNFPESVYGRLVDLCQPSHKRFNIATTKILQKHMNSIVCDTEETAAKAIVYLKDHRYPPETFLPNDALVVNPLNEKLREIKKPAGVKLVFDVINPQHQAARKALQFVCGNALVCESQEDAKQLAYGGGELKDRFKAVSMDGTLFQQSGVMSGGSADLRQKSKKWDEKVVKQLREKRNQLNEKIADLQKHRRRELEVESVRSKINGNEQRLAMMKRDLKNMREMQLERLQNELEGMTAEMNMLPPRISNCQEKLERSESTLKSLQTKSNEVADRIFADFCTRVGIASIRDYENREMRIKQEMEDKLRSFDDDIQKLAYEIDFVTEQDGNRKVEVEKEKVSQIDRQYKDMKKKEKTAAAALKEHTESMEQDKEVLEEKKALSHKLETEWNEVKKIAQVAMKDFTKAEKELLRLESLLTKKQYERHSLLHSVKLGQIALPLKSGSMADVEYEEDDGDIYFIIFVSLFPFKFQLISDDTASQSSQSATDGPSVSEEQIQREQHIKINYDSLPREYKDVDDDDGVRQMSNRLNVEIDELQKNVSKMNAPNLKANQRMAEVKEREAESTEELENARKKAKRIRQQFEKVKTDRYRRFQDFFDPVANTIDDIYKQLSRNTSAQAFLGADNMEEPYLDGIQYNCVAPGKRFRPMDNLSGGEKTIAALALLFAVHGRNPAPFFVLDEIDAALDNTNIGKVASYICESAREHMQIIVISLKEEFYNKADSLIGIFPYPAACTTSGVLTFDLTRFKQIGLNEMTENPPTPSIAT,not soluble
17,MRGSHHHHHHGMASMTGGQQMGRDLYDDDDKDHPFTMADQAPFDTDVNTLTRFVMEEGRKARGTGELTQLLNSLCTAVKAISSAVRKAGIAHLYGIAGSTNVTGDQVKKLDVLSNDLVMNMLKSSFATCVLVSEEDKHAIIVEPEKRGKYVVCFDPLDGSSNIDCLVSVGTIFGIYRKKSTDEPSEKDALQPGRNLVAAGYALYGSATMLVLAMDCGVNCFMLDPAIGEFILVDKDVKIKKKGKIYSLNEGYAKDFDPAVTEYIQRKKFPPDNSAPYGARYVGSMVADVHRTLVYGGIFLYPANKKSPNGKLRLLYECNPMAYVMEKAGGMATTGKEAVLDVIPTDIHQRAPVILGSPDDVLEFLKVYEKHSAQ,soluble
18,MRGSHHHHHHGSKVRGKYDGPKINDYDKFYEDIWKKYVPQPVEVKQGSVYDYYDILEELGSGAFGVVHRCVEKATGRVFVAKFINTPYPLDKYTVKNEISIMNQLHHPKLINLHDAFEDKYEMVLILEFLSGGELFDRIAAEDYKMSEAEVINYMRQACEGLKHMHEHSIVHLDIKPENIMCETKKASSVKIIDFGLATKLNPDEIVKVTTATAEFAAPEIVDREPVGFYTDMWAIGVLGYVLLSGLSPFAGEDDLETLQNVKRCDWEFDEDAFSSVSPEAKDFIKNLLQKEPRKRLTVHDALEHPWLKGDHSNLTSRIPSSRYNKIRQKIKEKYADWPAPQPAIGRIANFSSLRKHRPQEYQIYDSYFDRKEAVPRFKLRPSLISS,soluble
